According to patent US20100028924:
Changes are numbered by the printed parent chain.

B1: wt rePON1-192K (protein)
chain: MAKLTALTLLGLGLALFDGQKSSFQTRFNVHREVTPVELPNCNLVKGVDNGSEDLEILPNGLAFISSGLKYPGIMSFDPDKSGKILLMDLNEEDPVVLELGITGNTLDISSFNPHGISTFTDEDNTVYLLVVNHPDSSSTVEVFKFQEEEKSLLHLKTIRHKLLPSVNDIVAVGPEHFYATNDHYFADPYLKSWEMHLGLAWSFVTYYSPNDVRVVAEGFDFANGINISPDGKYVYIAELLAHKIHVYEKHANWTLTPLKSLDFDTLVDNISVDPVTGDLWVGCHPNGMRIFYYDPKNPPGSEVLRIQDILSEEPKVTVVYAENGTVLQGSTVAAVYKGKLLIGTVFHKALYCEL
B2: rePON1-192R (protein)
chain: B1 chain with K192R
B3: rePON1-192Q (protein)
chain: B1 chain with K192Q
B4: human PON1-192R (protein)
chain: AKLIALTLLGMGLALFRNHQSSYQTRLNALREVQPVELPNCNLVKGIETGSEDLEILPNGLAFISSGLKYPGIKSFNPNSPGKILLMDLNEEDPTVLELGITGSKFDVSSFNPHGISTFTDEDNAMYLLVVNHPDAKSTVELFKFQEEEKSLLHLKTIRHKLLPNLNDIVAVGPEHFYGTNDHYFLDPYLRSWEMYLGLAWSYVVYYSPSEVRVVAEGFDFANGINISPDGKYVYIAELLAHKIHVYEKHANWTLTPLKSLDFNTLVDNISVDPETGDLWVGCHPNGMKIFFYDSENPPASEVLRIQNILTEEPKVTQVYAENGTVLQGSTVASVYKGKLLIGTVFHKALYCEL
B5: human PON1-192Q (protein)
chain: B4 chain with R191Q

Biological target: rHDL-apoA-I (reconstituted discoidal HDL particles carrying apolipoprotein A-I)

Row | Protein | A2 (%), amplitude of the slow phase of inactivation on apoA-I rHDL [%] | Kapp (µM), substrate TBBL [µM] | Kapp (µM), substrate paraoxon [µM] | Kapp (µM), substrate phenyl acetate [µM] | Kapp (µM), substrate γ-dodecanoic lactone [µM] | Kapp (µM), substrate δ-nonanoic lactone [µM] | Kapp (µM), substrate δ-valerolactone [µM] | Vmax (%), enzymatic activation by apoA-I rHDL, substrate TBBL [%] | Vmax (%), enzymatic activation by apoA-I rHDL, substrate paraoxon [%] | Vmax (%), enzymatic activation by apoA-I rHDL, substrate phenyl acetate [%] | Vmax (%), enzymatic activation by apoA-I rHDL, substrate γ-dodecanoic lactone [%] | Vmax (%), enzymatic activation by apoA-I rHDL, substrate δ-nonanoic lactone [%] | Vmax (%), enzymatic activation by apoA-I rHDL, substrate δ-valerolactone [%] | fold higher fraction of HDL-bound protein than the Q isozyme (from inactivation/stability measurements; reference rePON1-192Q) | reduction of Vmax of stimulation by rHDL compared to wt rePON1-192K | activation level of lactonase activity by rHDL-apoA-I, against 192Q | stated: enzymatic activity stimulated by a 50-fold molar excess of rHDl-apoA-I (% Activity Stimulation, delipidated enzyme as reference), six substrates [panel B]
1 | B1 | 100 | 0.5 | 0.6 | 0.5 | 1.2 | 1.3 | 1.3 | 791 | 222 | 425 | 1830 | 1580 | 1720 | a 3-fold higher fraction of HDL-bound protein as revealed from the stability measurements | – | – | –
2 | B2 | 90 | 0.4 | 0.8 | 0.8 | 0.9 | 1.5 | 1.1 | 579 | 200 | 336 | 1260 | 1350 | 1400 | a 3-fold higher fraction of HDL-bound protein as revealed from the stability measurements | 10-30% reduction of Vmax | – | –
3 | B3 | 70 | 0.5 | 0.8 | 0.8 | 0.6 | 0.6 | 1.1 | 340 | 128 | 165 | 382 | 778 | 481 | – | 50-80% reduction of Vmax compared to wt rePON1-192K | – | –
4 | B4 | 87 | – | – | – | – | – | – | – | – | – | – | – | – | – | – | about 2-fold higher activation level than 192Q | dark bars: about 650 to 750 % with γ-dodecanoic lactone, δ-valerolactone and δ-nonanoic lactone, about 450 % with TBBL, about 200 to 250 % with phenyl acetate and paraoxon; higher than the 192Q bar with every lactone
5 | B5 | 72 | – | – | – | – | – | – | – | – | – | – | – | – | – | – | – | white bars: about 280 % with γ-dodecanoic lactone, about 420 to 440 % with δ-valerolactone and δ-nonanoic lactone, about 250 % with TBBL, about 170 to 210 % with phenyl acetate and paraoxon; lower than the 192R bar with every lactone, close to it with phenyl acetate and paraoxon
